Laboratory results as given in article PMC12170345 (Nature Structural & Molecular Biology, 2025).
Blank lines part the entries; values can stand above or below the binder they belong to.

Key:
[1] = target: the molecule itself; assay: single-molecule fluorescence intensity counting (TIRF microscopy); GFP-tagged protein diluted in PBS and immobilised on a plasma-cleaned coverslip; intensities compared with single GFP and GFP–EB3 dimers in adjacent chambers
[2] = target: TOGARAM1 (mouse, full length, GFP- or mCherry-tagged) (mouse, UniProt Q6A070 1-1776); assay: cell-based or functional assay
[3] = target: T1, CCDC66 (full length, GFP- or mCherry-tagged) (human, UniProt A2RUB6 1-948); assay: in vitro reconstitution on dynamic microtubules (TIRF microscopy); recruitment of one fluorescent protein to MTs by another that is on the MTs; 15 µM tubulin, with or without 20 nM EB3; MRB80, 50 mM KCl, 1 mM GTP, 30 °C; details: both partners purified
T1 construct: CCDC66, human, full-length protein; source: HEK293T, transiently transfected; purified (StrepTactin beads) for in vitro assays; in lysate for coimmunoprecipitation; not shown: GFP or mCherry, N-terminal, kept
T1 sequence (looked up): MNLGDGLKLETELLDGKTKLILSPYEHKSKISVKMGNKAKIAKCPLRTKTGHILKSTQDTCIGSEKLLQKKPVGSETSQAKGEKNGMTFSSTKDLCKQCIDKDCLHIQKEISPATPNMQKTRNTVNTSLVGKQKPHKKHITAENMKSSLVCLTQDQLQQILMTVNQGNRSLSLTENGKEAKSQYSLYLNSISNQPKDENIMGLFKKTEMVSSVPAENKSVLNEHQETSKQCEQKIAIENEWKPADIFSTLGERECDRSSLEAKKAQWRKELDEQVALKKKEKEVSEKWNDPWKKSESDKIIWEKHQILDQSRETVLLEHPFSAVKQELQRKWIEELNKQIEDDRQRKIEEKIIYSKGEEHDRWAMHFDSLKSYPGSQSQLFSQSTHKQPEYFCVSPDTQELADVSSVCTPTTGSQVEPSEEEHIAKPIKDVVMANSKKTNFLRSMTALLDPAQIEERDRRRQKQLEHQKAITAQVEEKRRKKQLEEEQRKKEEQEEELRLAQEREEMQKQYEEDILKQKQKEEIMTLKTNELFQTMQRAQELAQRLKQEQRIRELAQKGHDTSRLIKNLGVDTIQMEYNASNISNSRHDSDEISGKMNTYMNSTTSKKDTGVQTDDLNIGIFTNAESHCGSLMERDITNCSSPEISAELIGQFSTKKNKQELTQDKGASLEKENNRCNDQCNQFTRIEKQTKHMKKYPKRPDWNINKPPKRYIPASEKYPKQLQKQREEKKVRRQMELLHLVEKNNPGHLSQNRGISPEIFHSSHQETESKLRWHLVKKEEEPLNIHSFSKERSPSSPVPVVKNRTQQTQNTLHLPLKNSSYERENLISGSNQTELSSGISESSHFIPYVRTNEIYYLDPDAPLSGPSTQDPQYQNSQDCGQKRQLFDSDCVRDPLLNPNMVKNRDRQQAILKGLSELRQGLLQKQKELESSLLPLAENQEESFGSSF

Sequence of TOGARAM1 (mouse, full length, GFP- or mCherry-tagged) (Q6A070 whole entry): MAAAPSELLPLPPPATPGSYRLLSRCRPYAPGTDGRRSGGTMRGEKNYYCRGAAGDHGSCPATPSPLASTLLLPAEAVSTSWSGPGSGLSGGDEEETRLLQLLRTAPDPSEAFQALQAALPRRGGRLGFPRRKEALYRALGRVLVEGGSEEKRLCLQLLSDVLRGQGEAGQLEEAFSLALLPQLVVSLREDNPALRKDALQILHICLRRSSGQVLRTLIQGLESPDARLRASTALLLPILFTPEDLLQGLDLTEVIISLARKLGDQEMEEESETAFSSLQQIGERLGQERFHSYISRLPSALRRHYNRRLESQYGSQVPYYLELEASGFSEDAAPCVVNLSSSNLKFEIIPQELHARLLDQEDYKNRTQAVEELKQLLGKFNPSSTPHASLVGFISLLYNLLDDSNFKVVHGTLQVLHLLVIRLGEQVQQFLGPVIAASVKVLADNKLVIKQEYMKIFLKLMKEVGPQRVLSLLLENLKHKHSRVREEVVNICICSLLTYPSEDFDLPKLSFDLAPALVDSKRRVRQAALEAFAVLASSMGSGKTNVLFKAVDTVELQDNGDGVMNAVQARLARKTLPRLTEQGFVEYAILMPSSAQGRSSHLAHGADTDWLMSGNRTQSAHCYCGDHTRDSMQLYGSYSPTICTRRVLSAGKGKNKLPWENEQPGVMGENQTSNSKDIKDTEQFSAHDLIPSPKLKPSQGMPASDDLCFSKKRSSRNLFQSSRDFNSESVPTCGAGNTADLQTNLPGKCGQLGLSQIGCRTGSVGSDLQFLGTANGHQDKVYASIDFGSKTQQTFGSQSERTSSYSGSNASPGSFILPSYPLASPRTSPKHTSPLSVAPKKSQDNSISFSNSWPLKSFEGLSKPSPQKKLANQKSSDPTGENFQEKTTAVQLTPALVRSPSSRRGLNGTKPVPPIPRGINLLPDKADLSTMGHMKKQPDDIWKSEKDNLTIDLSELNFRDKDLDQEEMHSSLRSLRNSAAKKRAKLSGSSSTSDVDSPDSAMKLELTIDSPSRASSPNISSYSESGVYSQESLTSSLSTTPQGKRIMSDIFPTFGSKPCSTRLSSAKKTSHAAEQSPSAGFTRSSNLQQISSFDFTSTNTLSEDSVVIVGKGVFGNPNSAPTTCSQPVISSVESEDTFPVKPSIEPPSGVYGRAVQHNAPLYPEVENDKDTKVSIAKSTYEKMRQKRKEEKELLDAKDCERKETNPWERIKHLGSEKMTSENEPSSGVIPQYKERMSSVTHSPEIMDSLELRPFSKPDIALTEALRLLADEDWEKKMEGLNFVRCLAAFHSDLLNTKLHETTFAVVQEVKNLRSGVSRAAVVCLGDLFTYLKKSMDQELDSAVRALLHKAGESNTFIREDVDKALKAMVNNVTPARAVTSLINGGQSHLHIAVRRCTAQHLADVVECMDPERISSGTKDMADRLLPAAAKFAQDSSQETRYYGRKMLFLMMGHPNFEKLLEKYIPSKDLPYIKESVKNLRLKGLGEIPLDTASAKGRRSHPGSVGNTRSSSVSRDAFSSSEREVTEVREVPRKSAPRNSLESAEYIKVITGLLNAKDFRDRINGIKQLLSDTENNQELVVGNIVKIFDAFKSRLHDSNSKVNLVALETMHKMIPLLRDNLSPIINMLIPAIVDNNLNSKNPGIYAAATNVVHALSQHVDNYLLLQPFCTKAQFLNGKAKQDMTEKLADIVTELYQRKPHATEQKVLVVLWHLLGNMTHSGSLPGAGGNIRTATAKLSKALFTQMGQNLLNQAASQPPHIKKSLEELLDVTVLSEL

rescue activity of TOGARAM1 on MTs in the presence of ARMC9 [2]: ~2 fold
B1: ARMC9 (full length, GFP- or mCherry-tagged) (natural protein, human, UniProt Q7Z3E5 1-818, looked up)
chain: MGDILAHESELLGLVKEYLDFAEFEDTLKTFSKECKIKGKPLCKTVGGSFRDSKSLTIQKDLVAAFDNGDQKVFFDLWEEHISSSIRDGDSFAQKLEFYLHIHFAIYLLKYSVGRPDKEELDEKISYFKTYLETKGAALSQTTEFLPFYALPFVPNPMVHPSFKELFQDSWTPELKLKLIKFLALISKASNTPKLLTIYKENGQSNKEILQQLHQQLVEAERRSVTYLKRYNKIQADYHNLIGVTAELVDSLEATVSGKMITPEYLQSVCVRLFSNQMRQSLAHSVDFTRPGTASTMLRASLAPVKLKDVPLLPSLDYEKLKKDLILGSDRLKAFLLQALRWRLTTSHPGEQRETVLQAYISNDLLDCYSHNQRSVLQLLHSTSDVVRQYMARLINAFASLAEGRLYLAQNTKVLQMLEGRLKEEDKDIITRENVLGALQKFSLRRPLQTAMIQDGLIFWLVDVLKDPDCLSDYTLEYSVALLMNLCLRSTGKNMCAKVAGLVLKVLSDLLGHENHEIQPYVNGALYSILSVPSIREEARAMGMEDILRCFIKEGNAEMIRQIEFIIKQLNSEELPDGVLESDDDEDEDDEEDHDIMEADLDKDELIQPQLGELSGEKLLTTEYLGIMTNTGKTRRKGLANVQWSGDEPLQRPVTPGGHRNGYPVVEDQHTPPQTAQHARNGHPQALPAAHEAVYREGKPSTPESCVSSSSAIIAKPGEWLPRGRQEEPRPAPTGTPRQPREAPQDPGNGVTTRECASAFTCKPRAPCTPEMLDWNPPKAKASVLAPLFSSCGPQQASRPGSTASSTRGLPSSQSHRK
notes: ARMC9, human, full-length protein; Dimer by single-molecule counting; multimers by SEC; also called GFP–ARMC9; GFP-ARMC9 FL; source: HEK293T, transiently transfected; purified (StrepTactin beads) for in vitro assays; in lysate for coimmunoprecipitation; not shown: GFP or mCherry, N-terminal, kept
stoichiometry N [1]: 2

binding result [3]: binds
B2: CEP104 (full length, GFP- or mCherry-tagged) (natural protein, human, UniProt O60308 1-925, looked up)
chain: MPHKIGFVVVSSSGHEDGFSARELMIHAPTVSGWRSPRFCQFPQEIVLQMVERCRIRKLQLLAHQYMISSKIEFYISESLPEYFAPYQAERFRRLGYVSLCDNEKTGCKARELKSVYVDAVGQFLKLIFHQNHVNKYNIYNQVALVAINIIGDPADFSDESNTASREKLIDHYLGHNSEDPALEGTYARKSDYISPLDDLAFDMYQDPEVAQIIRKLDERKREAVQKERYDYAKKLKQAIADLQKVGERLGRYEVEKRCAVEKEDYDLAKEKKQQMEQYRAEVYEQLELHSLLDAELMRRPFDLPLQPLARSGSPCHQKPMPSLPQLEERGTENQFAEPFLQEKPSSYSLTISPQHSAVDPLLPATDPHPKINAESLPYDERPLPAIRKHYGEAVVEPEMSNADISDARRGGMLGEPEPLTEKALREASSAIDVLGETLVAEAYCKTWSYREDALLALSKKLMEMPVGTPKEDLKNTLRASVFLVRRAIKDIVTSVFQASLKLLKMIITQYIPKHKLSKLETAHCVERTIPVLLTRTGDSSARLRVTAANFIQEMALFKEVKSLQIIPSYLVQPLKANSSVHLAMSQMGLLARLLKDLGTGSSGFTIDNVMKFSVSALEHRVYEVRETAVRIILDMYRQHQASILEYLPPDDSNTRRNILYKTIFEGFAKIDGRATDAEMRARRKAATEEAEKQKKEEIKALQGQLAALKEIQAEVQEKESDAVKPKNQDIQGGKAAPAEALGIPDEHYLDNLCIFCGERSESFTEEGLDLHYWKHCLMLTRCDHCKQVVEISSLTEHLLTECDKKDGFGKCYRCSEAVFKEELPRHIKHKDCNPAKPEKLANRCPLCHENFSPGEEAWKAHLMGPAGCTMNLRKTHILQKAPALQPGKSSAVAASGPLGSKAGSKIPTPKGGLSKSSSRTYAKR
notes: CEP104, human, full-length protein; Cloned into pTT5-C1-based expression vectors (vector: Addgene 52355); Dimer by single-molecule counting; also called GFP–CEP104; mCherry–CEP104; source: HEK293T, transiently transfected; purified (StrepTactin beads) for in vitro assays; in lysate for coimmunoprecipitation; not shown: GFP or mCherry, N-terminal, kept
stoichiometry N [1]: 2
